According to article PMC8439434:

Experiments:
[1] = biological target: HLA-B*08:01 (human (endogenous in the Steinlin EBV transformed cell line)); assay: radioligand binding; previously validated B*08:01 inhibition of binding assay (ref. 10); radiolabeled probe not named
[2] = biological target: HLA-C*07:01 purified from the Steinlin EBV transformed homozygous cell line (human (endogenous in the Steinlin EBV transformed cell line)); assay: radioligand binding; classical MHC-peptide inhibition of binding assay specific for HLA-C*07:01: purified MHC from the Steinlin line, radiolabeled 3424.0028 as probe, test peptides as inhibitors, anti-HLA Class I B123.2 mAb

peptide 3424.0028 (…, DNA replication licensing factor MCM5 289-297)
fold lower affinity than in the C*07:01 assay [1]: 1500 fold
affinity (from inhibition of binding) [2]: 0.21 nM
